PMC9478129

Assays:
[1] = tested on: Aa-Cascade Avi-Cas6f, mSav-ATTO647N labelled (Aggregatibacter actinomycetemcomitans); test: single-molecule DNA curtains; details: EMSA: 1x TAE, 200 mM NaCl, 10% glycerol, 0.1 mg/mL BSA, 20 nM DNA, 37 C (22 C for AcrIF9 mutants), 1% agarose, footprint: same buffer, 2 mM KMnO4, AFM: …
[2] = tested on: Aa-Cascade Avi-Cas6f, mSav-ATTO647N labelled;Aa1-AcrIF9 (Aggregatibacter actinomycetemcomitans;Aggregatibacter actinomycetemcomitans?); test: single-molecule DNA curtains; details: with AcrIF9, mean off-target dwell time 18.6 s, EMSA: 1x TAE, 200 mM NaCl, 10% glycerol, 0.1 mg/mL BSA, 20 nM DNA, 37 C (22 C for AcrIF9 mutants), 1% agarose, footprint: same buffer, 2 mM KMnO4, AFM: …

Substance: bacteriophage lambda DNA with target
- binding signal (% on-target events) [1]: 18
- binding signal (% on-target events) [2]: 8
